Consider one molecule from publication PMC6776900, “PPM1G forms a PPP‐type phosphatase holoenzyme with B56δ that maintains adherens junction integrity” (EMBO Reports, 2019).

In general, Kd refers to a measure of binding affinity in units of concentration. A lower Kd goes with a tighter complex.

Holding throughout (assay): BLI; Octet Red 96; His-tagged PPM1G or PPP2R1A immobilised on Ni-NTA biosensors, GST-B56δ proteins in solution (100–400 nm); 50 mM Tris pH 7.5, 300 mM NaCl, 0.01% NP-40 Igepal, 1 mM DTT; 25 °C
Common to all, as to conditions: both partners purified
For orientation: Biolayer interferometry detects binding as a change in optical thickness at a sensor tip.

In one test the target is T1, GST-B56δ L183A (human, UniProt Q14738 1-602, L183A).
T1 construct: B56δ (PPP2R5D), human cDNA, full length, point mutant; source: E. coli BL21 (DE3), purified (glutathione Sepharose)

Another test concerns the target T2, GST-B56δ (human, UniProt Q14738 1-602).
T2 construct: PP2A regulatory subunit B56δ (PPP2R5D), human cDNA, full-length protein; also called GST-B56δ wild type (WT); GST-tagged B56δ; source: E. coli BL21 (DE3), purified (glutathione Sepharose)

A further test has as its target T3, GST-B56δ H282A (human, UniProt Q14738 1-602, H282A).
T3 construct: B56δ (PPP2R5D), human cDNA, full length, point mutant; source: E. coli BL21 (DE3), purified (glutathione Sepharose)

T1 sequence (Q14738 whole entry L183A): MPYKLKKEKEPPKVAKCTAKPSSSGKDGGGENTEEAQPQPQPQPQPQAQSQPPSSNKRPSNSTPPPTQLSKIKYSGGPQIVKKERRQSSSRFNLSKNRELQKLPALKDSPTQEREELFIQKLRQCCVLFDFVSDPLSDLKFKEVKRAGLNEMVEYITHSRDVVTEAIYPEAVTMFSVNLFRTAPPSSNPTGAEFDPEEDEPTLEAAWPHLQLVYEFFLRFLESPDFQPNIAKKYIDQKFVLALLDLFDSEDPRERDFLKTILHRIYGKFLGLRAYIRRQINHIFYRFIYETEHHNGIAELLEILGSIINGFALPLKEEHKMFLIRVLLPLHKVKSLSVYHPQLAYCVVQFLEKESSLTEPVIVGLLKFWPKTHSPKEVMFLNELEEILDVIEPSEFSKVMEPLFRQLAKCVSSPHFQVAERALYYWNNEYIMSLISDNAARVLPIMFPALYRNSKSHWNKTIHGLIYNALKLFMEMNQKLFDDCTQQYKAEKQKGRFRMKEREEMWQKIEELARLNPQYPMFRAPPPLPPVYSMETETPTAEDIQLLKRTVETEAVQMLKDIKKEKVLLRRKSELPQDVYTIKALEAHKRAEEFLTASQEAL
T2 sequence (Q14738 whole entry, stated change not applied): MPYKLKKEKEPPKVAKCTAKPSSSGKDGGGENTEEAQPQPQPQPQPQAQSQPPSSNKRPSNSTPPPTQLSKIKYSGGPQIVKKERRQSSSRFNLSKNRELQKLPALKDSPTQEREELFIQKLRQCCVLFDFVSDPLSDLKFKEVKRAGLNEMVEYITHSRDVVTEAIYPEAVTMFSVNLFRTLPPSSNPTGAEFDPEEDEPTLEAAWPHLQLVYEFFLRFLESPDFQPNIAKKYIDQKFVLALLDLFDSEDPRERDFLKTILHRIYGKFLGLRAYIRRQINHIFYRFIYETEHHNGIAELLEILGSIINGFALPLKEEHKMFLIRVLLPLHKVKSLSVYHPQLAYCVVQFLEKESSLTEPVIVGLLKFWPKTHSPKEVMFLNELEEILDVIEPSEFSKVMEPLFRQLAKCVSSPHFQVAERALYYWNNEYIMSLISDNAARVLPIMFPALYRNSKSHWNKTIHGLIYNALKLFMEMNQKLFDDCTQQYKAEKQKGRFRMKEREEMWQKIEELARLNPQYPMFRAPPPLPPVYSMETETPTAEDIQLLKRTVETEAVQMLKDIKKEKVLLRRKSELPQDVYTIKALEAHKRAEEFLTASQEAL
T3 sequence (Q14738 whole entry H282A): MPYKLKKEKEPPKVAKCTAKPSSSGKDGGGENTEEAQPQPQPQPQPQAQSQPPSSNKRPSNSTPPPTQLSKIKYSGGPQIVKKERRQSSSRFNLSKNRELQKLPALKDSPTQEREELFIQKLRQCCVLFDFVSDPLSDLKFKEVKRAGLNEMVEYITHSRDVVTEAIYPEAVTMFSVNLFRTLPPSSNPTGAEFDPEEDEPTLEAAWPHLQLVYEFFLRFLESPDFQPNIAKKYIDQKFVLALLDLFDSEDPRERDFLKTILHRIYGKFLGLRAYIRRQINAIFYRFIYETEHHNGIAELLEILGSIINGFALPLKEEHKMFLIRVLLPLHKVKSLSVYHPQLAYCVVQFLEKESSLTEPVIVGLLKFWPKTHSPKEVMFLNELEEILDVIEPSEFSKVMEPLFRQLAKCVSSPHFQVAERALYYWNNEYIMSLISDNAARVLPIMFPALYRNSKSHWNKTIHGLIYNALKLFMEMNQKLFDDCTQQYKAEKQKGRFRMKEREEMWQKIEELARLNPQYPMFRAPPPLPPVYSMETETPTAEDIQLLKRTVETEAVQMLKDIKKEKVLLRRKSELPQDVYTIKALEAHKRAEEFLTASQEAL

B1: 6xHis-tagged PPM1G (enzyme, human, UniProt O15355 1-546, looked up)
chain: MGAYLSQPNTVKCSGDGVGAPRLPLPYGFSAMQGWRVSMEDAHNCIPELDSETAMFSVYDGHGGEEVALYCAKYLPDIIKDQKAYKEGKLQKALEDAFLAIDAKLTTEEVIKELAQIAGRPTEDEDEKEKVADEDDVDNEEAALLHEEATMTIEELLTRYGQNCHKGPPHSKSGGGTGEEPGSQGLNGEAGPEDSTRETPSQENGPTAKAYTGFSSNSERGTEAGQVGEPGIPTGEAGPSCSSASDKLPRVAKSKFFEDSEDESDEAEEEEEDSEECSEEEDGYSSEEAENEEDEDDTEEAEEDDEEEEEEMMVPGMEGKEEPGSDSGTTAVVALIRGKQLIVANAGDSRCVVSEAGKALDMSYDHKPEDEVELARIKNAGGKVTMDGRVNGGLNLSRAIGDHFYKRNKNLPPEEQMISALPDIKVLTLTDDHEFMVIACDGIWNVMSSQEVVDFIQSKISQRDENGELRLLSSIVEELLDQCLAPDTSGDGTGCDNMTCIIICFKPRNTAELQPESGKRKLEEVLSTEGAEENGNSDKKKKAKRD
notes: PPM1G (PP2Cγ); The cloning into a His-tag vector is not described in the methods; also called His-PPM1G; recombinant PPM1G; source: recombinant
As to B1, the results for the Kd with GST-B56δ L183A, with GST-B56δ and in the test with GST-B56δ H282A were 5.59 nM, 5.04 nM and 4.38 nM, respectively.
